Measurements published in publication PMC5640855, “ZIC2 Is Essential for Maintenance of Latency and Is a Target of an Immediate Early Protein during Kaposi's Sarcoma-Associated Herpesvirus Lytic Reactivation” (Journal of Virology, 2017).

Biological target: T1, GST-K-Rta (Kaposi's sarcoma-associated herpesvirus …, UniProt F5HCV3 1-691)
T1 construct: also called GST-tagged K-Rta; source: recombinant baculovirus-infected Sf9 cells, purified
T1 sequence: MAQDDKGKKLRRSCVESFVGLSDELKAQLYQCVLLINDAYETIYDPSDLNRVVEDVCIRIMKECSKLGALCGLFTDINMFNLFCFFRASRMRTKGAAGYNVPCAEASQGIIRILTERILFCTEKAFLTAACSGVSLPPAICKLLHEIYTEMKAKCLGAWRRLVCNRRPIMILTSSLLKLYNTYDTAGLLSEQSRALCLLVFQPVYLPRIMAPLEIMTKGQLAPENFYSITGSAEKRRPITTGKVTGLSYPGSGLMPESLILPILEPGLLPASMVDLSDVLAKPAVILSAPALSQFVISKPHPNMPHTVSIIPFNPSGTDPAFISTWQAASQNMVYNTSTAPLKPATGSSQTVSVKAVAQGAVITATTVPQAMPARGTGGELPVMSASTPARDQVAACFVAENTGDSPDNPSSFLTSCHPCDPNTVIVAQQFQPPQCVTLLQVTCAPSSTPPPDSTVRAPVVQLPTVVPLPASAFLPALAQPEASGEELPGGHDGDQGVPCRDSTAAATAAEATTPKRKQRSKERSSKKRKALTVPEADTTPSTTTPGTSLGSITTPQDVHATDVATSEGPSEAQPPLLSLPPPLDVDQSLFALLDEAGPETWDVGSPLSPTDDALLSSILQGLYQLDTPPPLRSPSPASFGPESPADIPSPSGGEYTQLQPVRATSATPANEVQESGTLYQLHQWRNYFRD
Experiment: pull-down
Details: both partners purified

B1: FLAG-tagged ZIC2 (natural protein, UniProt O95409 1-532, looked up)
chain: MLLDAGPQFPAIGVGSFARHHHHSAAAAAAAAAEMQDRELSLAAAQNGFVDSAAAHMGAFKLNPGAHELSPGQSSAFTSQGPGAYPGSAAAAAAAAALGPHAAHVGSYSGPPFNSTRDFLFRSRGFGDSAPGGGQHGLFGPGAGGLHHAHSDAQGHLLFPGLPEQHGPHGSQNVLNGQMRLGLPGEVFGRSEQYRQVASPRTDPYSAAQLHNQYGPMNMNMGMNMAAAAAHHHHHHHHHPGAFFRYMRQQCIKQELICKWIDPEQLSNPKKSCNKTFSTMHELVTHVSVEHVGGPEQSNHVCFWEECPREGKPFKAKYKLVNHIRVHTGEKPFPCPFPGCGKVFARSENLKIHKRTHTGEKPFQCEFEGCDRRFANSSDRKKHMHVHTSDKPYLCKMCDKSYTHPSSLRKHMKVHESSPQGSESSPAASSGYESSTPPGLVSPSAEPQSSSNLSPAAAAAAAAAAAAAAAVSAVHRGGGSGSGGAGGGSGGGSGSGGGGGGAGGGGGGSSGGGSGTAGGHSGLSSNFNEWYV
notes: ZIC2 (zinc finger protein of the cerebellum 2); cDNA cloned into pFastBac; also called FLAG-ZIC2; source: recombinant baculovirus-infected Sf9 cells, purified
Question: Does B1 bind?
Answer: binds
